Positions count from the first letter of the chain named. Names and notes keep the numbering of the source.

Data on 21 molecules can be found in patent US20210388087A1 (Chugai, published 2021).

The labels stand for the following.
B1: CE115HA000 N54Y one-arm antibody (antibody, human IgG1, kappa, L234A L235A, N297A, name in Kabat numbering)
heavy: QVQLVESGGGVVQPGRSLRLSCAASGFTFSNAWMHWVRQAPGKGLEWVAQIKAKSNYYATYYAESVKGRFTISRDDSKNSLYLQMNSLKTEDTAVYYCRYVHYGAYYGVDAWGQGTTVTVSSASTKGPSVFPLAPSSKSTSGGTAALGCLVKDYFPEPVTVSWNSGALTSGVHTFPAVLQSSGLYSLSSVVTVPSSSLGTQTYICNVNHKPSNTKVDKKVEPKSCDKTHTCPPCPAPEAAGGPSVFLFPPKPKDTLMISRTPEVTCVVVDVSHEDPEVKFNWYVDGVEVHNAKTKPREEQYASTYRVVSVLTVLHQDWLNGKEYKCKVSNKALPAPIEKTISKAKGQPREPQVYTLPPSRCELTKNQVSLSCAVKGFYPSDIAVEWESNGQPENNYKTTPPVLDSDGSFFLVSKLTVDKSRWQQGNVFSCSVMHEALHNHYTQKSLSLSPDYKDDDDK
chain: EPKSSDKTHTCPPCPAPELLGGPSVFLFPPKPKDTLMISRTPEVTCVVVDVSHEDPEVKFNWYVDGVEVHNAKTKPREEQYNSTYRVVSVLTVLHQDWLNGKEYKCKVSNKALPAPIEKTISKAKGQPREPQVCTLPPSRDELTKNQVSLWCLVKGFYPSDIAVEWESNGQPENNYKTTPPVLDSDGSFFLYSKLTVDKSRWQQGNVFSCSVMHEALHNRYTQKSLSLSP
light: DIVMTQSPLSLPVTPGEPASISCRSSQSLVHSNRNTYLHWYQQKPGQAPRLLIYKVSNRFSGVPDRFSGSGSGTDFTLKISRVEAEDVGVYYCGQGTQVPYTFGQGTKLEIKRTVAAPSVFIFPPSDEQLKSGTASVVCLLNNFYPREAKVQWKVDNALQSGNSQESVTEQDSKDSTYSLSSTLTLSKADYEKHKVYACEVTHQGLSSPVTKSFNRGEC
B2: CE115HA000 Q50L one-arm antibody (antibody, human IgG1, kappa, L234A L235A, N297A, name in Kabat numbering)
heavy: B1 heavy with Q50L, Y57N
chain: B1 chain
light: B1 light
B3: CE115HA000 S52cD one-arm antibody (antibody, human IgG1, kappa, L234A L235A, N297A, name in Kabat numbering)
heavy: B1 heavy with S55D, Y57N
chain: B1 chain
light: B1 light
B4: CE115HA000 S52cG one-arm antibody (antibody, human IgG1, kappa, L234A L235A, N297A, name in Kabat numbering)
heavy: B1 heavy with S55G, Y57N
chain: B1 chain
light: B1 light
B5: CE115HA000 R19T one-arm antibody (antibody, human IgG1, kappa, L234A L235A, N297A, name in Kabat numbering)
heavy: B1 heavy with R19T, Y57N
chain: B1 chain
light: B1 light
B6: CE115HA000 S52cA one-arm antibody (antibody, human IgG1, kappa, L234A L235A, N297A, name in Kabat numbering)
heavy: B1 heavy with S55A, Y57N
chain: B1 chain
light: B1 light
B7: CE115HA000 S30D one-arm antibody (antibody, human IgG1, kappa, L234A L235A, N297A, name in Kabat numbering)
heavy: B1 heavy with S30D, Y57N
chain: B1 chain
light: B1 light
B8: CE115HA000 R16E one-arm antibody (antibody, human IgG1, kappa, L234A L235A, N297A, name in Kabat numbering)
heavy: B1 heavy with R16E, Y57N
chain: B1 chain
light: B1 light
B9: CE115HA000 Q50Y one-arm antibody (antibody, human IgG1, kappa, L234A L235A, N297A, name in Kabat numbering)
heavy: B1 heavy with Q50Y, Y57N
chain: B1 chain
light: B1 light
B10: CE115HA000 Q105E one-arm antibody (antibody, human IgG1, kappa, L234A L235A, N297A, name in Kabat numbering)
heavy: B1 heavy with Y57N, Q114E
chain: B1 chain
light: B1 light
B11: CE115HA000 S30G one-arm antibody (antibody, human IgG1, kappa, L234A L235A, N297A, name in Kabat numbering)
heavy: B1 heavy with S30G, Y57N
chain: B1 chain
light: B1 light
B12: CE115HA000 Q50E one-arm antibody (antibody, human IgG1, kappa, L234A L235A, N297A, name in Kabat numbering)
heavy: B1 heavy with Q50E, Y57N
chain: B1 chain
light: B1 light
B13: CE115HA000 S52cF one-arm antibody (antibody, human IgG1, kappa, L234A L235A, N297A, name in Kabat numbering)
heavy: B1 heavy with S55F, Y57N
chain: B1 chain
light: B1 light
B14: CE115HA000 Q50A one-arm antibody (antibody, human IgG1, kappa, L234A L235A, N297A, name in Kabat numbering)
heavy: B1 heavy with Q50A, Y57N
chain: B1 chain
light: B1 light
B15: CE115HA000 Q50S one-arm antibody (antibody, human IgG1, kappa, L234A L235A, N297A, name in Kabat numbering)
heavy: B1 heavy with Q50S, Y57N
chain: B1 chain
light: B1 light
B16: CE115HA000 Q50D one-arm antibody (antibody, human IgG1, kappa, L234A L235A, N297A, name in Kabat numbering)
heavy: B1 heavy with Q50D, Y57N
chain: B1 chain
light: B1 light
B17: CE115HA000 N82aD one-arm antibody (antibody, human IgG1, kappa, L234A L235A, N297A, name in Kabat numbering)
heavy: B1 heavy with Y57N, N86D
chain: B1 chain
light: B1 light
B18: CE115HA000 Q50K one-arm antibody (antibody, human IgG1, kappa, L234A L235A, N297A, name in Kabat numbering)
heavy: B1 heavy with Q50K, Y57N
chain: B1 chain
light: B1 light
B19: CE115HA000 N76S one-arm antibody (antibody, human IgG1, kappa, L234A L235A, N297A, name in Kabat numbering)
heavy: B1 heavy with Y57N, N79S
chain: B1 chain
light: B1 light
B20: CE115HA000 R16Q one-arm antibody (antibody, human IgG1, kappa, L234A L235A, N297A, name in Kabat numbering)
heavy: B1 heavy with R16Q, Y57N
chain: B1 chain
light: B1 light
B21: CE115HA000 Q50I one-arm antibody (antibody, human IgG1, kappa, L234A L235A, N297A, name in Kabat numbering)
heavy: B1 heavy with Q50I, Y57N
chain: B1 chain
light: B1 light

In the assay the target is T1, CD3 epsilon homodimer protein (UniProt P07766 23-126).
T1 construct: immobilized on Sensor chip CM4 by amine coupling; also called CD3 (CD3 epsilon)
T1 sequence (P07766 23-126): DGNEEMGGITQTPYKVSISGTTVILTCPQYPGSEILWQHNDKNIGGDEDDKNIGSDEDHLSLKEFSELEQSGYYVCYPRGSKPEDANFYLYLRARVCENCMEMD
The assay is described as follows: SPR (Biacore T200), CD3 epsilon homodimer on CM4 chip, one-arm antibody as analyte, 25 C.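 Also: homodimer attached to the sensor surface via amine coupling, HBS-EP+ used as running buffer during binding runs.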
Consider B1, for which the “ratio of amounts bound (altered form / CE115HA000)” value came out at 1.09.
As to B2, the “ratio of amounts bound (altered form / CE115HA000)” value stood at 0.23.
As for B3, the figure is 0.6; as for B4, 0.97.
Regarding B5, the “ratio of amounts bound (altered form / CE115HA000)” value was 0.8.
Regarding B6, the “ratio of amounts bound (altered form / CE115HA000)” value stood at 0.96.
Consider B7, for which the “ratio of amounts bound (altered form / CE115HA000)” value was found to be 0.86.
B8: the “ratio of amounts bound (altered form / CE115HA000)” value amounted to 0.88.
In the case of B9, the “ratio of amounts bound (altered form / CE115HA000)” value worked out at 0.25.
In the case of B10, the “ratio of amounts bound (altered form / CE115HA000)” value was 0.94.
Regarding B11, the “ratio of amounts bound (altered form / CE115HA000)” value turned out to be 1.01.
Turning to B12, the “ratio of amounts bound (altered form / CE115HA000)” value worked out at 0.26.
Take B13: the “ratio of amounts bound (altered form / CE115HA000)” value came out at 1.13.
For the molecule B14, the “ratio of amounts bound (altered form / CE115HA000)” value is 0.24.
Take B15: the “ratio of amounts bound (altered form / CE115HA000)” value was determined as 0.24.
As to B16, the “ratio of amounts bound (altered form / CE115HA000)” value was 0.27.
Consider B17, for which the “ratio of amounts bound (altered form / CE115HA000)” value was 0.73.
Regarding B18, the “ratio of amounts bound (altered form / CE115HA000)” value worked out at 0.33.
On to B19, for which the “ratio of amounts bound (altered form / CE115HA000)” value worked out at 0.92.
The result for B20 reads 0.9; that for B21, 0.4.
